B1: DOM7h-14 A43C (other)
VL: DIQMTQSPSSLSASVGDRVTITCRASQWIGSQLSWYQQKPGKCPKLLIMWRSSLQSGVPSRFSGSGSGTDFTLTISSLQPEDFATYYCAQGAALPRTFGQGTKVEIKR
B2: DOM7h-14 Q38E (other)
VL: B1 VL with Q38E, C43A
B3: DOM7h-14 Q38T (other)
VL: B1 VL with Q38T, C43A
B4: DOM7h-14 P44R (other)
VL: B1 VL with C43A, P44R
B5: DOM7h-14 Q38Y (other)
VL: B1 VL with Q38Y, C43A
B6: DOM7h-14 P44G (other)
VL: B1 VL with C43A, P44G
B7: DOM7h-14 A43L (other)
VL: B1 VL with C43L
B8: DOM7h-14 Q38N (other)
VL: B1 VL with Q38N, C43A
B9: DOM7h-14 A43E (other)
VL: B1 VL with C43E
B10: DOM7h-14 Q38I (other)
VL: B1 VL with Q38I, C43A
B11: DOM7h-14 Q38M (other)
VL: B1 VL with Q38M, C43A
B12: DOM7h-14 Q38A (other)
VL: B1 VL with Q38A, C43A
B13: DOM7h-14 A43S (other)
VL: B1 VL with C43S
B14: DOM7h-14 Q38V (other)
VL: B1 VL with Q38V, C43A
B15: DOM7h-14 P44E (other)
VL: B1 VL with C43A, P44E
B16: DOM7h-14 P44K (other)
VL: B1 VL with C43A, P44K
B17: DOM7h-14 A43R (other)
VL: B1 VL with C43R
B18: DOM7h-14 Q38G (other)
VL: B1 VL with Q38G, C43A
B19: DOM7h-14 A43Y (other)
VL: B1 VL with C43Y
B20: DOM7h-14 A43I (other)
VL: B1 VL with C43I
B21: DOM7h-14 P44C (other)
VL: B1 VL with C43A, P44C
B22: DOM7h-14 P44I (other)
VL: B1 VL with C43A, P44I
B23: DOM7h-14 Q38P (other)
VL: B1 VL with Q38P, C43A
B24: DOM7h-14 P44S (other)
VL: B1 VL with C43A, P44S
B25: DOM7h-14 A43G (other)
VL: B1 VL with C43G
B26: DOM7h-14 A43N (other)
VL: B1 VL with C43N
B27: DOM7h-14 A43T (other)
VL: B1 VL with C43T
B28: DOM7h-14 P44M (other)
VL: B1 VL with C43A, P44M
B29: DOM7h-14 Q38D (other)
VL: B1 VL with Q38D, C43A
B30: DOM7h-14 Q38R (other)
VL: B1 VL with Q38R, C43A
B31: DOM7h-14 A43V (other)
VL: B1 VL with C43V
B32: DOM7h-14 Q38F (other)
VL: B1 VL with Q38F, C43A
B33: DOM7h-14 P44H (other)
VL: B1 VL with C43A, P44H
B34: DOM7h-14 A43P (other)
VL: B1 VL with C43P
B35: DOM7h-14 P44V (other)
VL: B1 VL with C43A, P44V
B36: DOM7h-14 Q38K (other)
VL: B1 VL with Q38K, C43A
B37: DOM7h-14 P44Q (other)
VL: B1 VL with C43A, P44Q
B38: DOM7h-14 P44A (other)
VL: B1 VL with C43A, P44A
B39: DOM7h-14 Q38W (other)
VL: B1 VL with Q38W, C43A
B40: DOM7h-14 P44D (other)
VL: B1 VL with C43A, P44D
B41: DOM7h-14 Q38S (other)
VL: B1 VL with Q38S, C43A
B42: DOM7h-14 P44T (other)
VL: B1 VL with C43A, P44T
B43: DOM7h-14 A43K (other)
VL: B1 VL with C43K
B44: DOM7h-14 Q38L (other)
VL: B1 VL with Q38L, C43A
B45: DOM7h-14 A43M (other)
VL: B1 VL with C43M
B46: DOM7h-14 P44N (other)
VL: B1 VL with C43A, P44N
B47: DOM7h-14 Q38H (other)
VL: B1 VL with Q38H, C43A
B48: DOM7h-14 A43F (other)
VL: B1 VL with C43F
B49: DOM7h-14 P44L (other)
VL: B1 VL with C43A, P44L
B50: DOM7h-14 P44W (other)
VL: B1 VL with C43A, P44W
B51: DOM7h-14 Q38C (other)
VL: B1 VL with Q38C, C43A
B52: DOM7h-14 A43H (other)
VL: B1 VL with C43H
B53: DOM7h-14-10 (other)
VL: B1 VL with C43A, A92L, A93R, L94H, R96K
notes: also called DOM7h-14-10 parent

Residue numbers refer to the chain shown, from its start. Names and notes keep the numbering of the source.

For the first assay, the target named is T1, Human Serum Albumin (human, UniProt P02768 25-609).
T1 construct: also called HSA; antigen
T1 sequence (P02768 25-609 limits assumed): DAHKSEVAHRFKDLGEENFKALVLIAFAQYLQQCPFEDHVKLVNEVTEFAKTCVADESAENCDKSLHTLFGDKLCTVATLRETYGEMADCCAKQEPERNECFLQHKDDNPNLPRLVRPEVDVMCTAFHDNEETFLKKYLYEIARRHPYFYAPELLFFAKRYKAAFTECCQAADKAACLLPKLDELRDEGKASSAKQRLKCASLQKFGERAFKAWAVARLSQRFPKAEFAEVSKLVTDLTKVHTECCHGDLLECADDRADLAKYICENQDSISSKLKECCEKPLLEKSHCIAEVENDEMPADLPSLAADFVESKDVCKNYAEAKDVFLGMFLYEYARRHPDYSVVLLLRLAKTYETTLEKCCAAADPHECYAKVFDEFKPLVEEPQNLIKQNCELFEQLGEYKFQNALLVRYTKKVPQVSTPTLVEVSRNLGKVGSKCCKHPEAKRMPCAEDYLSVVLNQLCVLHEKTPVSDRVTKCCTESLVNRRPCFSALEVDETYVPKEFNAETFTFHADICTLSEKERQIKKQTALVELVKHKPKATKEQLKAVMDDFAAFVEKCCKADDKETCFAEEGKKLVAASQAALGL
Description: BIAcore, supernatant over immobilised HSA (6036 RU).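 Note: expressed culture supernatants of mutant clones diluted 1:1 in HBS-EP buffer and screened for binding.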 For orientation: SPR reads the build-up and loss of mass on a sensor chip optically.
Description: Screening of expressed supernatants for Protein L and HSA binding: Mutant clones were picked into a 96 well plate format and expressed in 1 mL 2×TY 0.1 mg/ml carbenicillin supplemented with OnEx solutions 1, 2 and 3 according to the manufacturer's instructions (Novagen). Cultures were grown at 30° C. for 3 days at 950 rpm high humidity in an InforsHT shaker. Cells were pelleted by centrifugation (4.5 k in a bench top Sorvall centrifuge for 30 mins) and 75 μL of the supernatant added to an equal volume of HBS-EP buffer (GE Healthcare).
As to B1, the binding result is reported as “binds”.
B2: the binding result is listed as “binds”.
The same measure, in the same setting: under B3 stands “binds”; under B4, “binds”.
As for B5, the binding result is listed as “binds”.
Same read-out and setting: to B6 belongs “binds”.
Consider B7, for which the binding result is “binds”.
Still for that read-out and setting: to B8 belongs “binds”; to B9, “binds”.
With B10, the binding result was “binds”.
Turning to B11, the binding result is recorded as “binds”.
As to B12, the binding result is listed as “binds”.
With B13, the binding result was “binds”.
Still for that read-out and setting: under B14 stands “binds”; under B15, “binds”; under B16, “binds”.
The same measure, in the same setting: to B17 belongs “binds”.
Consider B18, for which the binding result is on record as “binds”.
For B19, the binding result is recorded as “binds”.
The same measure, in the same setting: under B20 stands “binds”; under B21, “binds”.
B22: the binding result is reported as “binds”.
Regarding B23, the binding result is recorded as “binds”.
In the case of B24, the binding result is reported as “binds”.
B25: the binding result is “binds”.
For B26, the binding result is given as “binds”.
Still for that read-out and setting: under B27 stands “binds”; under B28, “binds”.
On the same count and under the same terms, under B29 stands “binds”.
B30: the binding result was “binds”.
As for B31, the binding result is “binds”.
On to B32, for which the binding result is “binds”.
The same measure, in the same setting: under B33 stands “binds”; under B34, “binds”.
On to B35, for which the binding result is reported as “binds”.
Same read-out and setting: to B36 belongs “binds”.
Turning to B37, the binding result is listed as “binds”.
Take B38: the binding result is “binds”.
Regarding B39, the binding result is “binds”.
As for B40, the binding result was “binds”.
With B41, the binding result was “binds”.
For B42, the binding result was “binds”.
Still for that read-out and setting: under B43 stands “binds”.
Consider B44, for which the binding result is “binds”.
Take B45: the binding result was “binds”.
B46: the binding result was “binds”.
On to B47, for which the binding result is “binds”.
With B48, the binding result is “binds”.
Turning to B49, the binding result is listed as “binds”.
B50: the binding result is on record as “binds”.
Consider B51, for which the binding result is reported as “binds”.
As to B52, the binding result was “binds”.

A further assay deals with T1, Human Serum Albumin. The experiment in a line: SPR (Biacore 2000), purified dAb over HSA (559 RU) on CM5 chip.
Description: The data analysis followed routine and established algorithms using the instrument's software (Bia-evaluation 3.2 RC1).
On to B53, for which the Kd is 0.026 µM, the koff came out at 0.017 s⁻¹ and the kon came out at 670000 M⁻¹ s⁻¹.

As usually defined, the Kd is the concentration at which binding is half-saturated. The term koff denotes a measure of how fast the partners let go of each other. Lower therefore signals a long-lived complex. Usually kon stands for the rate constant with which the complex forms. Higher therefore signals fast association.

Source of the values: patent US20130045895A1 (published 2013).
